Data on eleven molecules can be found in US20120034160A1 (AbbVie / Abbott, published 2012).

Substitutions are numbered along the chain they refer to.

T1: Recombinant Human IL-17 (human, UniProt Q16552 20-155, limits assumed)
T1 sequence (looked up): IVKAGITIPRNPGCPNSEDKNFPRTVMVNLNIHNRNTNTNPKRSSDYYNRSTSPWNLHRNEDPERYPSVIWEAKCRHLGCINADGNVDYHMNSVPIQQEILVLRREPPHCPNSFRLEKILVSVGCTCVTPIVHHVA

T2: Recombinant Human IL-17 (human, UniProt Q16552 20-155, limits assumed)
T2 construct: bought reagent
T2 sequence (looked up): T1 sequence (looked up)

B1: DVD1635 (bispecific antibody, human IgG1, kappa)
heavy: not shown
light: DTVVTQSPAFLSVTPGEKVTITCITSTDIDVDMNWYQQKPDQPPKLLISQGNTLRPGVPSRFSSSGSGTDFTFTISSLEAEDAATYYCLQSDNLPLTFGQGTKLEIKRTVAAPEIVLTQSPDFQSVTPKEKVTITCRASQDIGSELHWYQQKPDQPPKLLIKYASHSTSGVPSRFSGSGSGTDFTLTINGLEAEDAGTYYCHQTDSLPYTFGPGTKVDIKRTVAAPSVFIFPPSDEQLKSGTASVVCLLNNFYPREAKVQWKVDNALQSGNSQESVTEQDSKDSTYSLSSTLTLSKADYEKHKVYACEVTHQGLSSPVTKSFNRGEC
notes: DVD-Ig: outer AB271, inner AB274; V1/V2 vectors: wild type hIgG1, kappa
B2: DVD1633 (bispecific antibody, human IgG1, kappa)
heavy: not shown
light: DTQVTQSPSSLSASVGDRVTITCITSTDIDVDMNWYQQKPGKPPKLLISQGNTLRPGVPSRFSSSGSGTDFTFTISSLQPEDFATYYCLQSDNLPLTFGQGTKLEIKRTVAAPEIVLTQSPDFQSVTPKEKVTITCRASQDIGSELHWYQQKPDQPPKLLIKYASHSTSGVPSRFSGSGSGTDFTLTINGLEAEDAGTYYCHQTDSLPYTFGPGTKVDIKRTVAAPSVFIFPPSDEQLKSGTASVVCLLNNFYPREAKVQWKVDNALQSGNSQESVTEQDSKDSTYSLSSTLTLSKADYEKHKVYACEVTHQGLSSPVTKSFNRGEC
notes: DVD-Ig: outer AB270, inner AB274; V1/V2 vectors: wild type hIgG1, kappa
B3: DVD1637 (bispecific antibody, human IgG1, kappa)
heavy: not shown
light: B2 light with D1E, Q3T
notes: DVD-Ig: outer AB272, inner AB274; V1/V2 vectors: wild type hIgG1, kappa
B4: DVD1613 (bispecific antibody, human IgG1, kappa)
heavy: not shown
light: DTQVTQSPSSLSASVGDRVTITCITSTDIDVDMNWYQQKPGKPPKLLISQGNTLRPGVPSRFSSSGSGTDFTFTISSLQPEDFATYYCLQSDNLPLTFGQGTKLEIKRTVAAPSVFIFPPEIVLTQSPDFQSVTPKEKVTITCRASQNIGSELHWYQQKPDQSPKLLIKYASHSISGVPSRFSGSGSGTDFTLTINGLEAEDAATYYCHQSDTLPHTFGQGTKVDIKRTVAAPSVFIFPPSDEQLKSGTASVVCLLNNFYPREAKVQWKVDNALQSGNSQESVTEQDSKDSTYSLSSTLTLSKADYEKHKVYACEVTHQGLSSPVTKSFNRGEC
notes: DVD-Ig, outer AB270, inner AB275, linker set 2; V1 wt hIgG1, V2 kappa; also called DVD1613H; DVD1613L
B5: DVD1625 (bispecific antibody, human IgG1, kappa)
heavy: not shown
light: DTVVTQSPAFLSVTPGEKVTITCITSTDIDVDMNWYQQKPDQPPKLLISQGNTLRPGVPSRFSSSGSGTDFTFTISSLEAEDAATYYCLQSDNLPLTFGQGTKLEIKRTVAAPDIQMTQSPSSLSASVGDRVTITCRASSGIISYIDWFQQKPGKAPKRLIYATFDLASGVPSRFSGSGSGTDYTLTISSLQPEDFATYYCRQVGSYPETFGQGTKLEIKRTVAAPSVFIFPPSDEQLKSGTASVVCLLNNFYPREAKVQWKVDNALQSGNSQESVTEQDSKDSTYSLSSTLTLSKADYEKHKVYACEVTHQGLSSPVTKSFNRGEC
notes: DVD-Ig, outer AB271, inner AB273, linker set 3; V1 wt hIgG1, V2 kappa; also called DVD1625H; DVD1625L
B6: DVD1615 (bispecific antibody, human IgG1, kappa)
heavy: not shown
light: DTVVTQSPAFLSVTPGEKVTITCITSTDIDVDMNWYQQKPDQPPKLLISQGNTLRPGVPSRFSSSGSGTDFTFTISSLEAEDAATYYCLQSDNLPLTFGQGTKLEIKRTVAAPSVFIFPPEIVLTQSPDFQSVTPKEKVTITCRASQNIGSELHWYQQKPDQSPKLLIKYASHSISGVPSRFSGSGSGTDFTLTINGLEAEDAATYYCHQSDTLPHTFGQGTKVDIKRTVAAPSVFIFPPSDEQLKSGTASVVCLLNNFYPREAKVQWKVDNALQSGNSQESVTEQDSKDSTYSLSSTLTLSKADYEKHKVYACEVTHQGLSSPVTKSFNRGEC
notes: DVD-Ig, outer AB271, inner AB275, linker set 2; V1 wt hIgG1, V2 kappa; also called DVD1615H; DVD1615L
B7: DVD1629 (bispecific antibody, human IgG1, kappa)
heavy: not shown
light: DIQMTQSPSSLSASVGDRVTITCRASGNIHNYLTWYQQTPGKAPKLLIYNAKTLADGVPSRFSGSGSGTDYTFTISSLQPEDIATYYCQHFWSIPYTFGQGTKLQITRTVAAPEIVLTQSPDFQSVTPKEKVTITCRASQDIGSELHWYQQKPDQPPKLLIKYASHSTSGVPSRFSGSGSGTDFTLTINGLEAEDAGTYYCHQTDSLPYTFGPGTKVDIKRTVAAPSVFIFPPSDEQLKSGTASVVCLLNNFYPREAKVQWKVDNALQSGNSQESVTEQDSKDSTYSLSSTLTLSKADYEKHKVYACEVTHQGLSSPVTKSFNRGEC
notes: V1 wt hIgG1, V2 kappa; also called DVD1629H; DVD1629L
B8: DVD1631 (bispecific antibody, human IgG1, kappa)
heavy: not shown
light: B7 light
notes: V1 wt hIgG1, V2 kappa; also called DVD1631H; DVD1631L
B9: DVD1623 (bispecific antibody, human IgG1, kappa)
heavy: not shown
light: DTQVTQSPSSLSASVGDRVTITCITSTDIDVDMNWYQQKPGKPPKLLISQGNTLRPGVPSRFSSSGSGTDFTFTISSLQPEDFATYYCLQSDNLPLTFGQGTKLEIKRTVAAPDIQMTQSPSSLSASVGDRVTITCRASSGIISYIDWFQQKPGKAPKRLIYATFDLASGVPSRFSGSGSGTDYTLTISSLQPEDFATYYCRQVGSYPETFGQGTKLEIKRTVAAPSVFIFPPSDEQLKSGTASVVCLLNNFYPREAKVQWKVDNALQSGNSQESVTEQDSKDSTYSLSSTLTLSKADYEKHKVYACEVTHQGLSSPVTKSFNRGEC
notes: DVD-Ig, outer AB270, inner AB273, linker set 3; V1 wt hIgG1, V2 kappa; also called DVD1623H; DVD1623L
B10: DVD1627 (bispecific antibody, human IgG1, kappa)
heavy: not shown
light: B9 light with D1E, Q3T
notes: DVD-Ig, outer AB272, inner AB273, linker set 3; V1 wt hIgG1, V2 kappa; also called DVD1627H; DVD1627L
B11: DVD1611 (bispecific antibody, human IgG1, kappa)
heavy: not shown
light: DIQMTQSPSSLSASVGDRVTITCRASGNIHNYLTWYQQTPGKAPKLLIYNAKTLADGVPSRFSGSGSGTDYTFTISSLQPEDIATYYCQHFWSIPYTFGQGTKLQITRTVAAPSVFIFPPEIVLTQSPDFQSVTPKEKVTITCRASQNIGSELHWYQQKPDQSPKLLIKYASHSISGVPSRFSGSGSGTDFTLTINGLEAEDAATYYCHQSDTLPHTFGQGTKVDIKRTVAAPSVFIFPPSDEQLKSGTASVVCLLNNFYPREAKVQWKVDNALQSGNSQESVTEQDSKDSTYSLSSTLTLSKADYEKHKVYACEVTHQGLSSPVTKSFNRGEC
notes: V1 wt hIgG1, V2 kappa; also called DVD1611H; DVD1611L

In one assay the target is T3, Recombinant Human IL-1β (human, UniProt P01584 117-269). As to the kind of experiment: cell-based or functional assay.
For the molecule B1, the “N-Terminal VD IL-1β Neutralization Assay EC50” value was 240 pM.
B2: the “N-Terminal VD IL-1β Neutralization Assay EC50” value came out at 371 pM.
Same read-out and setting: the same measure for B3: 552 pM.

The next assay deals with T1, Recombinant Human IL-17. As to the kind of experiment: cell-based or functional assay.
As to B1, the “C-terminal VD IL-17 Neutralization Assay EC50” value stood at 127 pM.
Take B2: the “C-terminal VD IL-17 Neutralization Assay EC50” value amounted to 146 pM.
B3: the “C-terminal VD IL-17 Neutralization Assay EC50” value is 27.1 pM.

A further assay concerns the target T3, Recombinant Human IL-1β. The assay is described as follows: Biacore SPR; N-terminal VD. The method, boiled down: (§1)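 SPR, 25° C, HBS-EP (10 mM HEPES pH 7.4, 150 mM NaCl, 3 mM EDTA, 0.005% P20). Capture via anti-mouse IgG Fcγ chip; analyte 10−200 nM at 25 μl/min. 1:1 Langmuir global fit; KD = koff/kon.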
In general terms: Surface plasmon resonance follows binding to a sensor surface in real time, without labels.
In general, Kd refers to a measure of binding affinity in units of concentration. In general, koff refers to the rate constant with which the complex falls apart. What is called kon is the rate constant with which the complex forms. With B1, the Kd came out at 60 pM, the koff is 0.00045 s⁻¹ and the association rate constant (kon) was found to be 7.6e+06 M⁻¹ s⁻¹.
B2: the Kd stood at 63 pM, the off-rate (koff) is 0.00057 s⁻¹ and the association rate constant (kon) came out at 9e+06 M⁻¹ s⁻¹.
For B3, the equilibrium dissociation constant (Kd) amounted to 75 pM, the koff was determined as 0.00059 s⁻¹ and the kon is 7.9e+06 M⁻¹ s⁻¹.

Another assay has as its target T4, Recombinant Human IL-1β (human, UniProt P01584 117-269).
T4 construct: bought reagent; also called IL-1B
As to the kind of experiment: Biacore SPR; N-terminal VD. The method, boiled down: as §1
For B4, the Kd was determined as 59 pM, the koff was determined as 0.00046 s⁻¹ and the kon came out at 7.8e+06 M⁻¹ s⁻¹.
With B5, the dissociation constant Kd came to 63 pM, the koff came out at 0.00054 s⁻¹ and the kon came out at 8.6e+06 M⁻¹ s⁻¹.
As for B6, the equilibrium dissociation constant (Kd) turned out to be 55 pM, the dissociation rate constant (koff) came out at 0.00055 s⁻¹ and the on-rate constant (kon) was determined as 9.9e+06 M⁻¹ s⁻¹.
The corresponding values for B7 are 39 pM, 7.3e-05 s⁻¹ and 1.9e+06 M⁻¹ s⁻¹.
Take B8: the equilibrium dissociation constant (Kd) was found to be 17 pM, the koff is 2.2e-05 s⁻¹ and the kon came to 1.3e+06 M⁻¹ s⁻¹.
With B9, the Kd amounted to 75 pM, the koff is 0.00049 s⁻¹ and the kon worked out at 6.6e+06 M⁻¹ s⁻¹.
With B10, the dissociation constant (Kd) is 86 pM, the off-rate (koff) came out at 0.00059 s⁻¹ and the association rate constant (kon) was 6.8e+06 M⁻¹ s⁻¹.
With B11, the dissociation constant Kd came out at 420 pM, the dissociation rate constant (koff) was 0.00013 s⁻¹ and the kon is 310000 M⁻¹ s⁻¹.

For the next assay, the target named is T2, Recombinant Human IL-17. The assay is described as follows: Biacore SPR; C-terminal VD. Put shortly: as §1
For B4, the dissociation constant Kd was at most 0.15 pM, the koff is below 1e-06 s⁻¹ and the on-rate constant (kon) was 360000 M⁻¹ s⁻¹.
Take B5: the Kd is 5.1 pM, the koff stood at 3.2e-06 s⁻¹ and the kon is 630000 M⁻¹ s⁻¹.
On to B6, for which the dissociation constant (Kd) worked out at 150 pM, the off-rate (koff) was 6e-05 s⁻¹ and the on-rate constant (kon) came out at 390000 M⁻¹ s⁻¹.
As for B7, the Kd is at most 0.11 pM, the koff is below 1e-06 s⁻¹ and the on-rate (kon) is 1.4e+06 M⁻¹ s⁻¹.
Consider B8, for which the Kd is at most 0.14 pM, the koff was below 1e-06 s⁻¹ and the kon came out at 250000 M⁻¹ s⁻¹.
Taken in the same sequence, the figures for B9 were at most 0.034 pM, below 1e-06 s⁻¹ and 230000 M⁻¹ s⁻¹.
For the molecule B10, the Kd amounted to 8.4 pM, the koff was 1.7e-06 s⁻¹ and the kon came to 200000 M⁻¹ s⁻¹.
For B11, the dissociation constant (Kd) was found to be 15 pM, the koff came to 6e-05 s⁻¹ and the kon was 4.1e+06 M⁻¹ s⁻¹.

The next assay addresses T1, Recombinant Human IL-17. The assay is described as follows: Biacore SPR; C-terminal VD. The method, boiled down:
as §1
Take B1: the dissociation constant (Kd) was 140 pM, the koff was found to be 4.9e-05 s⁻¹ and the kon amounted to 360000 M⁻¹ s⁻¹.
For the molecule B2, the dissociation constant Kd was below 6.3 pM, the koff was below 1e-06 s⁻¹ and the on-rate constant (kon) was found to be 160000 M⁻¹ s⁻¹.
As for B3, the Kd is at most 2.5 pM, the koff is below 1e-06 s⁻¹ and the kon came to 230000 M⁻¹ s⁻¹.
